In PMC4209802:
Where two headings read alike, the source gives them in different places.

Experiments:
Test in all cases: FRET or BRET
OT-I TCR vβ5 chain [1] = molecular target: OT-I TCR vβ5 chain
P14 TCR vβ8 chain [2] = molecular target: P14 TCR vβ8 chain
P14 TCR vβ8 chain [3] = molecular target: P14 TCR vβ8 chain; remark: listed apart in the source
OT-I TCR vβ5 chain [4] = molecular target: OT-I TCR vβ5 chain; remark: listed apart in the source
OT-I TCR vβ5 chain [5] = molecular target: OT-I TCR vβ5 chain; remark: listed apart in the source
P14 TCR vβ8 chain [6] = molecular target: P14 TCR vβ8 chain; remark: listed apart in the source
P14 TCR vβ8 chain [7] = molecular target: P14 TCR vβ8 chain; remark: listed apart in the source
P14 TCR vβ8 chain [8] = molecular target: P14 TCR vβ8 chain; remark: listed apart in the source
OT-I TCR vβ5 chain [9] = molecular target: OT-I TCR vβ5 chain; remark: listed apart in the source
P14 TCR vβ8 chain [10] = molecular target: P14 TCR vβ8 chain; remark: listed apart in the source
P14 TCR vβ8 chain [11] = molecular target: P14 TCR vβ8 chain; remark: listed apart in the source

| FRET efficiency (OT-I TCR vβ5 chain [1]) [%] | FRET efficiency (P14 TCR vβ8 chain [2]) [%] | FRET efficiency (P14 TCR vβ8 chain [3]) [%] | FRET efficiency (OT-I TCR vβ5 chain [4]) [%] | FRET efficiency (OT-I TCR vβ5 chain [5]) [%] | FRET efficiency (P14 TCR vβ8 chain [6]) [%] | FRET efficiency (P14 TCR vβ8 chain [7]) [%] | FRET efficiency (P14 TCR vβ8 chain [8]) [%] | FRET efficiency (OT-I TCR vβ5 chain [9]) [%] | FRET efficiency (P14 TCR vβ8 chain [10]) [%] | FRET efficiency (P14 TCR vβ8 chain [11]) [%] | Substance |
| --- | --- | --- | --- | --- | --- | --- | --- | --- | --- | --- | --- |
| 25 | 21 | 16 | 33.7 | 32.5 | 22.6 | – | – | – | – | – | OT-I TCR vα2 chain with N-terminal HA tag |
| 12 | 19 | 10 | – | 12 | 23.3 | 35 | 27 | 28 | 26 | 27 | P14 TCR vα2 chain with two N-terminal myc tags |
